Numbering of substitutions follows the chain as printed. In names and notes the source's numbering stands. Several values for one entry are separate records, joined by “and”; a condition that tells them apart may be missing. Identical values can stand only once.
B1: Wild-type TWINKLE lacking the mitochondrial targeting sequence (residues 1-42) (enzyme, human, UniProt Q96RR1 43-684, looked up)
chain: ETLQALDMPVLPVTATEIRQYLRGHGIPFQDGHSCLRALSPFAESSQLKGQTGVTTSFSLFIDKTTGHFLCMTSLAEGSWEDFQASVEGRGDGAREGFLLSKAPEFEDSEEVRRIWNRAIPLWELPDQEEVQLADTMFGLTKVTDDTLKRFSVRYLRPARSLVFPWFSPGGSGLRGLKLLEAKCQGDGVSYEETTIPRPSAYHNLFGLPLISRRDAEVVLTSRELDSLALNQSTGLPTLTLPRGTTCLPPALLPYLEQFRRIVFWLGDDLRSWEAAKLFARKLNPKRCFLVRPGDQQPRPLEALNGGFNLSRILRTALPAWHKSIVSFRQLREEVLGELSNVEQAAGLRWSRFPDLNRILKGHRKGELTVFTGPTGSGKTTFISEYALDLCSQGVNTLWGSFEISNVRLARVMLTQFAEGRLEDQLDKYDHWADRFEDLPLYFMTFHGQQSIRTVIDTMQHAVYVYDICHVIIDNLQFMMGHEQLSTDRIAAQDYIIGVFRKFATDNNCHVTLVIHPRKEDDDKELQTASIFGSAKASQEADNVLILQDRKLVTGPGKRYLQVSKNRFDGDVGVFPLEFNKNSLTFSIPPKNKARLKKIKDDTGPVAKKPSSGKKGATTQNSEICSGQAPTPDQPDTSKRSK
B2: R334Q TWINKLE (enzyme, human, UniProt Q96RR1 43-684, looked up)
chain: B1 chain with R292Q
B3: P335L TWINKLE (enzyme, human, UniProt Q96RR1 43-684, looked up)
chain: B1 chain with P293L
B4: W315L TWINKLE (enzyme, human, UniProt Q96RR1 43-684, looked up)
chain: B1 chain with W273L
B5: S369P TWINKLE (enzyme, human, UniProt Q96RR1 43-684, looked up)
chain: B1 chain with S327P
B6: L381P TWINKLE (enzyme, human, UniProt Q96RR1 43-684, looked up)
chain: B1 chain with L339P

Target: the molecule itself
Experiment: negative-stain single-particle electron microscopy

| Protein | oligomeric state (%), heptamer | oligomeric state (%), hexamer | oligomeric state (%), broken ring |
| --- | --- | --- | --- |
| B1 | 41.1% | 58.9% | – |
| B2 | 55.1% | 36.6% | 8.3% |
| B3 | 72.3% | 4.7% | 6.4% |
| B4 | 87.1% | – | 12.9% |
| B5 | 41.6% | 13.2% | 45.2% |
| B6 | 28.6% | 33% | 26.9% |

Target: the molecule itself
Experiment: negative-stain single-particle electron microscopy
Remark: another data set of the same source

| Protein | stoichiometry N |
| --- | --- |
| B1 | 6 and 7 |
| B2 | 7 and 6 |
| B3 | 6 and 7 and 8 and 9 |
| B4 | 7 |
| B5 | 6 and 7 |
| B6 | 6 and 7 and 5 |
